{"source": "the DeepSol protein solubility set"}
{"assay": "soluble on expression in E. coli; label from the status in PepcDB or PDB records"}
{"sequence": "MKSSLSLLLLTSALSNFALATEIKSGGETSTTKEGANAFSMPAANLPMAKRLDFSVGNSFFRNPWVPAPASTDARDGLGPLFNTNGCQNCHIKDGRGHPPEPNDTQAVSMLVRLSIPAVTEQQKAIYAVNGVVPEPTYGGQLQDFSLPDQKPEGRIHITYDEVVVTFADGTPVALRKPNLKILDLAYGEMHPDVQMSARVAPPMIGLGLLEAIPDATLLQWADPEDRDGDGISGRVNQVRDVRTGEMAIGRFGWKAGQPNIMQQNAAAFNGDLGLTSHLFPQENCTEKQTLCRDLPNGGSPEVSDNILDFVEFYAQHLAVPVRRNVQDPQVQLGEKLFAQAGCQSCHKTNVLTQELAERPALSKQRIQPYTDLLLHDMGEGLSDGRPEALASAREWRTAPLWGIGYTQEVNGHTYFLHDGRARNVLEAVLWHGGEAQASRDKVLQFDKAQREALVAFLNSL", "soluble on expression in E. coli": "not soluble"}
{"sequence": "MKSTSMNTNKRFQNVNQWKLHASAAAYLAGWKVVRLLPEPVAYRLFSWAAVIASRRGRGMDQLRRNLTRVVGAESVDRALVKRSMQSYARYWCEAFRLSVIARDPDVIHRVDAHAVGVEQVNPHSPMIIVLPHSGNWDLIGMYFVKKVGTFTTVAERVKPESLFRAFVNYRRSLGFEVLPLTGSETSPYSVLLQRVREGRTVCLLGERDLTSHGVEVEFFGETTRMPAGAVKLALDSGAPLHVAHTWFEGDDWGLSLSEPVEITDVKSGVQAIAQIMEKNIKAHPQDWHLLQPLWINDLDRRRYESGLQPKND", "soluble on expression in E. coli": "not soluble"}
{"sequence": "MKTADELAKLRRASELITDSMLATIAAARAGSTKLEIIEQLRREETNRGLHFEYCLLTLGASHNRAGSPQAWAEGEILSIDSGGNYHGYIGDLCRMGVLGEPDAELEDLLAEVERIQQAAFAKVRAGVLGSEMIVAAEAELKASPSAAFTDFFCHGMGLITHEAPFLMTNHPVAYEGIDADKPLEAGNVISVETTMLHPKRGFIKLEDTLAITDKGYEMFGDRGRGLEHHHHHH", "soluble on expression in E. coli": "soluble"}
{"sequence": "MKTAIVYYSQHHGNTKKLLDAIAIVDDVTLIDVTKHTAYDLNEFNLIGFASGIYFQKFSKKVLDFAKNNLPFNKKVFFIYTCGIKFPSYTVAIRAVVKEKNADIVGEYGCPGFDTFGPFKIVGGIRKGRPNENDIAKAVQFFRGILKLEHHHHHH", "soluble on expression in E. coli": "soluble"}
{"sequence": "MKTEKEEAEEEPFVIRPYLKSELAHKYNPHLPLIYAMQKLRGWIRNNKELYDAMYSGGEGKNDHAYSSRQVRLIVKFLDEP", "soluble on expression in E. coli": "not soluble"}
{"sequence": "MKTFPLQSLTIIEAQQKQFALVDSICRHFPGSEFLTGGDLGLTPGLNQPRVTQRVEQVLADAFHAQAAALVQGAGTGAIRAGLAALLKPGQRLLVHDAPVYPTTRVIIEQMGLTLITVDFNDLSALKQVVDEQQPDAALVQHTRQQPQDSYVLADVLATLRAAGVPALTDDNYAVMKVARIGCECGANVSTFSCFKLFGPEGVGAVVGDADVINRIRATLYSGGSQIQGAQALEVLRGLVFAPVMHAVQAGVSERLLALLNGGAVPEVKSAVIANAQSKVLIVEFHQPIAARVLEEAQKRGALPYPVGAESKYEIPPLFYRLSGTFRQANPQSEHCAIRINPNRSGEETVLRILRESIASI", "soluble on expression in E. coli": "soluble"}
{"sequence": "MKTKDQIDNIVKETYRHIDFSGVILVKEKKGIVYEEVFGYANRNECINNTLQTRFGIASGCKIFTAIGICQLVENGVITFQTKLKECLSVNFPNFNEDITIHHLLTHSSGIPDYFDESIMDNFEDLWKQTPMYLLKSLKDFLPLFQNRDMMYAPGSKFHYNNAGFIILGLIIEEQTGLTFTEYIEKNIFNPIGMNHSGYFSLDRLPRQTALGYIKDEISQTWRTNAYSIPIKGGSDGGAFITASDMLKFWEALFNYEIISQEYTKILLTPHIQVNNNQSYGYGIWIETRENKIFKYHVMGYDPGVSFRSAVYPDLGITLVIPSNKGAGAEKLMIEIEGSF", "soluble on expression in E. coli": "not soluble"}
{"sequence": "MKTLIARHKAGEHIGICSVCSAHPLVIEAALAFDRNSTRKVLIEATSNQVNQFGGYTGMTPADFREFVFTIADKVGFARERIILGGDHLGPNCWQQENADAAMEKSVELVKAYVRAGFSKIHLDASMSCAGDTIPLAPETVAERAAVLCFAAESVATDCQREQLSYVIGTEVPVPGGEASAIQSVHITHVEDAANTLRTHQKAFIARGLTEALTRVIAIVVQPGVEFDHSNIIHYQPQEAQALAQWIENTRMVYEAHSTDYQTRTAYWELVRDHFAILKVGPALTFALREAIFALAQIEQELIAPENRSGCLAVIEEVMLDEPQYWKKYYRTGFNDSLLDIRYSLSDRIRYYWPHSRIKNSVETMMVNLQGVDIPLGMISQYLPKQFERIQSGELSAMPHQLIMNKIYDVLRAYRYGCAE", "soluble on expression in E. coli": "not soluble"}
{"sequence": "MKTLILFSTRDGQTREIASYLASELKELGIQADVANVHRIEEPQWENYDRVVIGASIRYGHYHSAFQEFVKKHATRLNSMPSAFYSVNLVARKPEKRTPQTNSYARKFLMNSQWRPDRCAVIAGALRYPRYRWYDRFMIKLIMKMSGGETDTRKEVVYTDWEQVANFAREIAHLTDKPTLK", "soluble on expression in E. coli": "not soluble"}
{"sequence": "MKTLLPTSTAGSLPKPSWLAQPEKLWSPWKLQDEELIEGKRDALRLSLNDQQQAGIDIVSDGEQTRQHFVTTFIEHLSGVDFEKRETVRIRNRYDASVPTVVGAVSREKPVFVEDAKFLRQQTRQPIKWALPGPMTMIDTLYDSHYKSREKLAWEFAKILNQEARELEAAGVDIIQFDEPAFNVFFDEVNDWGVATLEKAIEGLKCETAVHICYGYGIKANTDWKKTLGSEWRQYEEAFPKLQKSNIDLISLECHNSRVPMDLIELIRGKKVMVGAIDVATSAIETPEEVADTLRKALRFVDADKLYPCTNCGMAPLSRQVARSKLNALGAGAEIIRRELSVAAALEHHHHHH", "soluble on expression in E. coli": "not soluble"}
{"sequence": "MKTPPINQKSLRETESWKLLESSIIYYEGNPIGTVAAQDPELAALNYDQCFLRDFVPSAFVFLMDGQTDIVRNFLIETLTLQSHEKEMDCFQPGAGLMPASFKVESDGSKEYLVADFGEKAIARVPPVDSCMWWILLLRAYEKATGDLTLAREPKFQAGIKLILDLCLAHRFSMYPTMLVPDGAFMIDRRMGVYEHPLEIQVLFYAALRAARELLLPDGDGEQYLNKVHGRLGALQYHIRNYYWVDLKRLREIYRYKGNEFGKEIANKFNIFSQSIPDWVIEWLPEKGGYLAGNLGPGRMDFRFFALGNLMAILAGLASEEESQRIMNLFAHRWEDLIGYMPVKICYPALQGLEWQIVTGCDPKNIPWSYHNGGNWPVLLWLFTAAALKTGKVELAHEAIAIAEGRLSNDKFPEYYDGNNGRLIGKEARIYQTWSIAGLLVAKQFLANPDHVEFISFPDTFIGPGCSLLEHHHHHH", "soluble on expression in E. coli": "not soluble"}
{"sequence": "MKTPRLLQYLAYPQKITGPIIEAELRDVAIGELCEIRRGWHQKQVVARAQVVGLQRERTVLSLIGNAQGLSRDVVLYPTGRALSAWVGYSVLGAVLDPTGKIVERFTPEVAPISEERVIDVAPPSYASRVGVREPLITGVRAIDGLLTCGVGQRMGIFASAGCGKTMLMHMLIEQTEADVFVIGLIGERGREVTEFVDMLRASHKKEKCVLVFATSDFPSVDRCNAAQLATTVAEYFRDQGKRVVLFIDSMTRYARALRDVALASGERPARRGYPASVFDNLPRLLERPGATSEGSITAFYTVLLESEEEADPMADEIRSILDGHLYLSRKLAGQGHYPAIDVLKSVSRVFGQVTTPTHAEQASAVRKLMTRLEELQLFIDLGEYRPGENIDNDRAMQMRDSLKAWLCQPVAQYSSFDDTLSGMNAFADQN", "soluble on expression in E. coli": "not soluble"}
